According to patent publication US20210069342A1 (LEGOCHEM BIOSCIENCES, published 2021):

Tests used:
[1] = target: T1, human ROR1 expressed on the cell surface (human, UniProt Q01973 30-937); assay: flow cytometry on MDA-MB-468 cells (breast cancer), C2E3 IgG, FITC anti-human Fc detection
T1 construct: whole, on cells; also called cell surface-expressed ROR1 antigen; ROR1 on JeKo-1, Mino, CHO-human ROR1, MC38-human ROR1 and other cancer cell lines
Method: (§1) FACS analysis (FACSCalibur, BD Biosciences) was used to analyze the binding of the anti-ROR1 antibody of the present invention to ROR1 in the above cell lines.
(§2) Specifically, the respective cell lines were dissociated and washed in PBS, then the numbers of cells were counted and adjusted to 2×10⁵ cells/200 PBS. Then, they were treated with 10 /mL of the antibody of clone name C2E3 of the ROR1 monoclonal antibodies prepared in Embodiment 3, and reacted for 1 hour at 4° C. After the reaction, the cells were washed in PBS, then FITC-marked constant region (Fc) specific antibody (Goat anti-human IgG FITC conjugate, Fc specific, Sigma, F9512, concentration 20 mg/ml) was suspended in 2 /1×10⁵ cells/200 PBS and reacted for 1 hour at 4° C. After reacting, the cells were washed with PBS and analyzed with the FACSCalibur equipment. The negative control was only treated with FITC-marked constant region (Fc) specific antibody. To compare the degree of ROR1 expression among the respective cancer cell lines, the quotient of dividing the shifted readings for the experimental group treated with the ROR1 monoclonal antibody (C2E3) of the present invention by the shifted readings for the control group (MFI Ratio: MFI of anti-ROR1/MFI or 2nd Ab) is indicated.

[2] = target: T1, human ROR1 expressed on the cell surface; assay: flow cytometry on HCC1937 cells (breast cancer), C2E3 IgG, FITC anti-human Fc detection
Method: as §1, §2

[3] = target: T1, human ROR1 expressed on the cell surface; assay: flow cytometry on H460 cells (lung cancer), C2E3 IgG, FITC anti-human Fc detection
Method: as §1, §2

[4] = target: T2, recombinant mouse ROR1 protein (Acrobiosystems, RO1-M5221) (mouse, UniProt Q9Z139 30-403); assay: ELISA, wells coated with recombinant mouse ROR1 protein, IgG titrated, HRP anti-Fab detection, OD (450-650nm)
T2 construct: Bought protein; also called mouse ROR1 antigen
Method: Anti-ROR1 antibody antigen binding affinity was assessed using an ELISA-based solution binding assay. Specifically, a 96-well microtiter plate (Nunc-Immuno Plates), NUNC) was coated for 16 hours at 4° C. with the ROR1 protein described below at a concentration of 1 in PBS solution, and non-specific binding sites were blocked for 2 hours with 3% BSA (bovine serum albumin). Here, the ROR1 protein used was, in the case of human ROR1, the ROR1-Fc or recombinant human ROR1-His (Sino Biological, 13968-H08H) of Embodiment 1. The ROR1-His used in ELISA, as stated in the above sentence, was a protein from the Sino Biological company (13968-H08H), and the ROR1-His of Embodiment 1 or recombinant mouse ROR1 protein was used (Acrobiosystems, RO1-M5221-100 )
Subsequently, the anti-ROR1 antibodies prepared in Embodiment 3 were added at the concentrations stated in FIG. 2 to a 96-well microtiter plate, and binding capacity was analyzed using ELISA as follows. Specifically, after incubating for 2 hours, the plate was washed 5 times with PBS containing 0.05% Tween 20, then HRP-conjugated Fab multiclonal antibody reagent (Perce, 31414) was diluted to 1:10,000 and placed in the washed microtiter plate. After reacting for 1 hour at 37° C., the ROR1 antibodies bonded to the plate were detected. After the reaction, color development was performed using TMB (Tetramethylbenzidine, Sigma, T0440). The enzymatic reaction was stopped using 0.5 mol/L sulfuric acid, and absorbance at 450 nm and 650 nm was measured (450 nm-650 nm) using a micro plate reader (Molecular Device)

[5] = target: T1, human ROR1 expressed on the cell surface; assay: flow cytometry on HCC70 cells (breast cancer), C2E3 IgG, FITC anti-human Fc detection
Method: as §1, §2

[6] = target: T1, human ROR1 expressed on the cell surface; assay: flow cytometry on NCI-H1975 cells (lung cancer), C2E3 IgG, FITC anti-human Fc detection
Method: as §1, §2

[7] = target: T1, human ROR1 expressed on the cell surface; assay: flow cytometry on BT20 cells (breast cancer), C2E3 IgG, FITC anti-human Fc detection
Method: as §1, §2

[8] = target: T1, human ROR1 expressed on the cell surface; assay: flow cytometry on SNU-16 cells (gastric cancer), C2E3 IgG, FITC anti-human Fc detection
Method: as §1, §2

[9] = target: T1, human ROR1 expressed on the cell surface; assay: flow cytometry on Kasumi-2 cells (ALL), C2E3 IgG, FITC anti-human Fc detection
Method: as §1, §2

T1 sequence (Q01973 30-937): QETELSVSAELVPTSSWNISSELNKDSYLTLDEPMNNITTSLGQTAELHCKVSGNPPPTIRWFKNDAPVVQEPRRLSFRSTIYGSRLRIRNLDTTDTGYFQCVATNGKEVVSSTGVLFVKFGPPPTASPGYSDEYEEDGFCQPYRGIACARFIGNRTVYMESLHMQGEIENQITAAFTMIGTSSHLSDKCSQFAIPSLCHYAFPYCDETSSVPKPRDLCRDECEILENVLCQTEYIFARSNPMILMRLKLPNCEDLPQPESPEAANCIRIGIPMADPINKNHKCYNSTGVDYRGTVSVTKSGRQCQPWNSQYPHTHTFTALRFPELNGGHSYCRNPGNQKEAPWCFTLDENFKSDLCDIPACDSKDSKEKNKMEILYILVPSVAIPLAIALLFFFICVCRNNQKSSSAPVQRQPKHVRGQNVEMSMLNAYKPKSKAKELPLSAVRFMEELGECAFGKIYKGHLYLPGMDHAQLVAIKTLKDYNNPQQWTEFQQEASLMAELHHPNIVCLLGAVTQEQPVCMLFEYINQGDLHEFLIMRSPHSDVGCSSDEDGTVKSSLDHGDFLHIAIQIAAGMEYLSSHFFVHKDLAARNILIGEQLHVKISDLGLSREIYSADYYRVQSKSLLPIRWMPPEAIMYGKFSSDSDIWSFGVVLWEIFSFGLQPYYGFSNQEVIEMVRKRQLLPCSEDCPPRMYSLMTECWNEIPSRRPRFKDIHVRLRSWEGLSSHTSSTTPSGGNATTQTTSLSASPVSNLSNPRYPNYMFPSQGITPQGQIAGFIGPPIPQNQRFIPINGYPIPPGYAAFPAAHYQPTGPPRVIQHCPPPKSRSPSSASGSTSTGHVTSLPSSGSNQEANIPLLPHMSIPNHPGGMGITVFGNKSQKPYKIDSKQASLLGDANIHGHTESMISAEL
T2 sequence (Q9Z139 30-403 limits assumed): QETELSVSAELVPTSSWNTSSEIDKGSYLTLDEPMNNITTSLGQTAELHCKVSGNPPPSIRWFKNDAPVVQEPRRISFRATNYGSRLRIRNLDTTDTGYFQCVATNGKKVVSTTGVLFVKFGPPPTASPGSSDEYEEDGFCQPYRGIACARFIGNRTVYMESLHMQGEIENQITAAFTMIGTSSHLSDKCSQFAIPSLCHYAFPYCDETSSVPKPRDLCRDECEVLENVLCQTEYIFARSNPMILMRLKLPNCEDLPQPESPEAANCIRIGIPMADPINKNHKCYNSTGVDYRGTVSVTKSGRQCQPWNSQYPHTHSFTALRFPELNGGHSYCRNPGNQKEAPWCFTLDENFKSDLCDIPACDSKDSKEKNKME

B1: anti-ROR1 IgG antibody C2E3 (antibody, V domains shown)
VH: EVQLLESGGGLVQPGGSLRLSCAASGFTFSNYAMSWVRQAPGKGLEWVSSISHNSGSTYYADSVKGRFTISRDNSKNTLYLQMNSLRAEDTAVYYCAKFISARKSLGRSYSNGMDVWGQGTLVTVSS
VL: QSVLTQPPSASGTPGQRVTISCTGSSSNIGSNDVTWYQQLPGTAPKLLIYADSKRPSGVPDRFSGSKSGTSASLAISGLRSEDEADYYCGTWDYSLSGYVFGGGTKLTVLG
notes: Full IgG form (human IgG1 constant region, lambda light chain), expressed in CHO-S cells
Mean Fold Ratio (MFI of anti-ROR1 / MFI of 2nd Ab) [1]: 6.4 | Mean Fold Ratio (MFI of anti-ROR1 / MFI of 2nd Ab) [2]: 2.7 | Mean Fold Ratio (MFI of anti-ROR1 / MFI of 2nd Ab) [3]: 10.9 | EC50 (read off the curve) [4]: ~300 pM | Mean Fold Ratio (MFI of anti-ROR1 / MFI of 2nd Ab) [5]: 3.8 | Mean Fold Ratio (MFI of anti-ROR1 / MFI of 2nd Ab) [6]: 4.2 | Mean Fold Ratio (MFI of anti-ROR1 / MFI of 2nd Ab) [7]: 3 | Mean Fold Ratio (MFI of anti-ROR1 / MFI of 2nd Ab) [8]: 2.4 | Mean Fold Ratio (MFI of anti-ROR1 / MFI of 2nd Ab) [9]: 11.5
